This passage reports Kd, koff and kon results from patent US20170066831A1 (Janssen / Centocor, published 2017).

In experiment [1] the target is T1, human ST2L extracellular domain with C-terminal His6 tag (human, UniProt Q01638 19-328).
T1 construct: also called huST2L-ECD; ST2L-ECD
T1 sequence: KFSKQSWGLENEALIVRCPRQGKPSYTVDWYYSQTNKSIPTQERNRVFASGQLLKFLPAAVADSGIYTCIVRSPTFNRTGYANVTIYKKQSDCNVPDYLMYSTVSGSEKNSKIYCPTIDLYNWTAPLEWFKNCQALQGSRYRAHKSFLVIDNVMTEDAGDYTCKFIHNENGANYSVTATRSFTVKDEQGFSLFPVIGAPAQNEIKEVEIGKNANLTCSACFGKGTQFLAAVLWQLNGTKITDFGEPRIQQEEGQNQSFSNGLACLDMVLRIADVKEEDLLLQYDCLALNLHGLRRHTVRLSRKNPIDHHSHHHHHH
Nature of the experiment: ProteOn SPR, mAb captured, ST2L-ECD in solution. On the procedure: (§1) The affinities were analyzed by ProteOn. The experiments were performed at 25° C. using ProteOn's PBS-T-E buffer (PBS, 0.005% P20 and 3 mM EDTA) as running buffer. […] Mab capture was followed by injection of ST2L-ECD from 0.024-15 nM (5-fold dilutions) for 4 min (200 μL at 50 μL/min). The dissociation was monitored for 30 minutes for all reaction. Regeneration was performed using two 15 sec pulses of 10 mM glycine pH1.5. The data was fitted to a 1:1 with baseline drift model.
(§2) Association rates for the samples are fast, the langmuir with mass transfer model was used for curve fitting and estimation of Affinity. All of the samples had faster off rates than the parental clone and control Mab. The difference in off rate was the primary contributor to the lower affinity of the HFA variants when compared to the parent antibody.

Experiment [2] has as its target T2, cynomolgus (Macaca fascicularis) ST2L extracellular domain with C-terminal His6 tag (Macaca fascicularis (cynomolgus), UniProt Q01638 19-321 (human entry)).
T2 construct: also called cyno ST2L-ECD; cynoST2L-ECD
T2 chain: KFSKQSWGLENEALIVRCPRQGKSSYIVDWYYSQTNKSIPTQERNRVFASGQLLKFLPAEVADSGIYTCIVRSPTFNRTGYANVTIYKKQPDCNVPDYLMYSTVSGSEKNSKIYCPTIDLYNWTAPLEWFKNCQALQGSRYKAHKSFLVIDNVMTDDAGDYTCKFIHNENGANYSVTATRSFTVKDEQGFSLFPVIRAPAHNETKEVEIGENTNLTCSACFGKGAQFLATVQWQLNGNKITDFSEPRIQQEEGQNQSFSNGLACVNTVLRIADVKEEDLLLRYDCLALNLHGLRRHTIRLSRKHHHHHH
Kind of experiment: ProteOn SPR, mAb captured, ST2L-ECD in solution. On the procedure:
as §1, §2

B1: STLM194 (antibody, V domains shown)
VH: QVQLVQSGAEVKKPGASVKVSCKVSAFNIKDDYMHWVRQAPGKGLEWMGRIDPAIGNTEYAPKFQDRVTMTEDTSTDTAYMELSSLRSEDTAVYYCATGDFYAMDYWGQGTLVTVSS
VL: DIQMTQSPSSLSASVGDRVTITCITNTDIDDVIHWYQQKPGKVPKLLIYEGNTLRPGVPSRFSGSGSGTDFTLTISSLQPEDVATYYCLQSDNMLTFGQGTKLEIK
notes: C2494 HFA mAb: VH STLH195 + VL STLL273 (A20)
As a reminder, the Kd is the free concentration of one partner at which half of the binding sites on the other are occupied at equilibrium, for simple one-to-one binding. A low value points to higher affinity. The term koff denotes a measure of how fast the partners let go of each other. Lower therefore signals slow dissociation. What is called kon is the second-order rate constant of association. The low end stands for slower complex formation, the high end for faster complex formation. In experiment [1], B1 displayed a Kd of 0.703 nM, a koff of 0.0703 s⁻¹ and a kon of 1e+08 M⁻¹ s⁻¹. Besides, in experiment [2], the Kd came out at 1.9 nM, the koff was determined as 0.19 s⁻¹ and the kon is 1e+08 M⁻¹ s⁻¹.

B2: STLM199 (antibody, V domains shown)
VH: EVQLVQSGAEVKKPGATVKISCKVSAFNIKDDYMHWVQQAPGKGLEWMGRIDPAIGNTEYAEKFQGRVTITADTSTDTAYMELSSLRSEDTAVYYCATGDFYAMDYWGQGTLVTVSS
VL: EIVMTQSPATLSVSPGERATLSCITNTDIDDVIHWYQQKPGQAPRLLIYEGNTLRPGIPARFSGSGSGTEFTLTISSLQSEDFAVYYCLQSDNMLTFGQGTKLEIK
notes: C2494 HFA mAb: VH STLH194 + VL STLL278 (L2)
Turning to B2, in experiment [1], the Kd was 0.0414 nM, the koff was determined as 0.000897 s⁻¹ and the kon is 2.17e+07 M⁻¹ s⁻¹. In experiment [2], this molecule registered a Kd of 0.0845 nM, a koff of 0.00657 s⁻¹ and a kon of 7.78e+07 M⁻¹ s⁻¹.

B3: STLM197 (antibody, V domains shown)
VH: EVQLVQSGAEVKKPGATVKISCKVSAFNIKDDYMHWVQQAPGKGLEWMGRIDPAIGNTEYAEKFQGRVTITADTSTDTAYMELSSLRSEDTAVYYCATGDFYAMDYWGQGTLVTVSS
VL: DIQMTQSPSSLSASVGDRVTITCITNTDIDDVIHWYQQKPGKAPKLLIYEGNTLRPGVPSRFSGSGSGTDFTLTISSLQPEDFATYYCLQSDNLLTFGQGTKLEIK
notes: C2494 HFA mAb: VH STLH194 (IGHV1-f*01) + VL STLL280 (O12b)
Consider B3, for which, in experiment [1], the Kd worked out at 0.0885 nM, the koff is 0.00162 s⁻¹ and the kon was 1.83e+07 M⁻¹ s⁻¹. In experiment [2], this molecule returned a Kd of 0.232 nM, a koff of 0.00688 s⁻¹ and a kon of 2.97e+07 M⁻¹ s⁻¹.

B4: STLM204 (antibody, V domains shown)
VH: EVQLVQSGAEVKKPGATVKISCKVSAFNIKDDYMHWVQQAPGKGLEWMGRIDPAIGNTEYAEKFQGRVTITADTSTDTAYMELSSLRSEDTAVYYCATGDFYAMDYWGQGTLVTVSS
VL: DIQMTQSPSSLSASVGDRVTITCITNTDIDDVIHWYQQKPGKVPKLLIYEGNTLRPGVPSRFSGSGSGTDFTLTISSLQPEDVATYYCLQSDNMLTFGQGTKLEIK
notes: C2494 HFA mAb: VH STLH194 + VL STLL273 (A20)
In experiment [1], B4 had a Kd of 0.0813 nM, a koff of 0.00241 s⁻¹ and a kon of 2.97e+07 M⁻¹ s⁻¹. In experiment [2], this molecule came in with a Kd of 0.205 nM, a koff of 0.0205 s⁻¹ and a kon of 1e+08 M⁻¹ s⁻¹.

B5: STLM195 (antibody, V domains shown)
VH: QVQLVQSGAEVKKPGASVKVSCKVSAFNIKDDYMHWVRQAPGKGLEWMGRIDPAIGNTEYAPKFQDRVTMTEDTSTDTAYMELSSLRSEDTAVYYCATGDFYAMDYWGQGTLVTVSS
VL: DIQMTQSPSSLSASVGDRVTITCITNTDIDDVIHWYQQKPGKAPKLLIYEGNTLRPGVPSRFSGSGSGTDFTFTISSLQPEDIATYYCLQSDNMLTFGQGTKLEIK
notes: C2494 HFA mAb: VH STLH195 + VL STLL272 (O18)
In experiment [1], B5 had a Kd of 0.271 nM, a koff of 0.00673 s⁻¹ and a kon of 2.49e+07 M⁻¹ s⁻¹. Besides, in experiment [2], the dissociation constant Kd was 0.719 nM, the koff stood at 0.0719 s⁻¹ and the association rate constant (kon) amounted to 1e+08 M⁻¹ s⁻¹.

B6: STLM201 (antibody, V domains shown)
VH: EVQLVQSGAEVKKPGATVKISCKVSAFNIKDDYMHWVQQAPGKGLEWMGRIDPAIGNTEYAEKFQGRVTITADTSTDTAYMELSSLRSEDTAVYYCATGDFYAMDYWGQGTLVTVSS
VL: DIQMTQSPSTLSASVGDRVTITCITNTDIDDVIHWYQQKPGKAPKLLIYEGNTLRPGVPSRFSGSGSGTEFTLTISSLQPDDFATYYCLQSDNMLTFGQGTKLEIK
notes: C2494 HFA mAb: VH STLH194 + VL STLL276 (L12)
In experiment [1], B6 showed a Kd of 0.0484 nM, a koff of 0.000852 s⁻¹ and a kon of 1.76e+07 M⁻¹ s⁻¹. Besides, in experiment [2], the Kd is 0.116 nM, the koff came out at 0.0041 s⁻¹ and the kon came out at 3.55e+07 M⁻¹ s⁻¹.

B7: STLM202 (antibody, V domains shown)
VH: EVQLVQSGAEVKKPGATVKISCKVSAFNIKDDYMHWVQQAPGKGLEWMGRIDPAIGNTEYAEKFQGRVTITADTSTDTAYMELSSLRSEDTAVYYCATGDFYAMDYWGQGTLVTVSS
VL: DIQMTQSPSSVSASVGDRVTITCITNTDIDDVIHWYQQKPGKAPKLLIYEGNTLRPGVPSRFSGSGSGTDFTLTISSLQPEDFATYYCLQSDNMLTFGQGTKLEIK
notes: C2494 HFA mAb: VH STLH194 + VL STLL275 (L5)
In experiment [1], B7 registered a Kd of 0.0529 nM, a koff of 0.00119 s⁻¹ and a kon of 2.24e+07 M⁻¹ s⁻¹. In experiment [2], this molecule registered a Kd of 0.134 nM, a koff of 0.0104 s⁻¹ and a kon of 7.75e+07 M⁻¹ s⁻¹.

B8: STLM200 (antibody, V domains shown)
VH: EVQLVQSGAEVKKPGATVKISCKVSAFNIKDDYMHWVQQAPGKGLEWMGRIDPAIGNTEYAEKFQGRVTITADTSTDTAYMELSSLRSEDTAVYYCATGDFYAMDYWGQGTLVTVSS
VL: DIQLTQSPSFLSASVGDRVTITCITNTDIDDVIHWYQQKPGKAPKLLIYEGNTLRPGVPSRFSGSGSGTEFTLTISSLQPEDFATYYCLQSDNMLTFGQGTKLEIK
notes: C2494 HFA mAb: VH STLH194 + VL STLL277 (L8)
Take B8: in experiment [1], the Kd worked out at 0.0608 nM, the koff was found to be 0.00143 s⁻¹ and the kon was found to be 2.35e+07 M⁻¹ s⁻¹. Also, in experiment [2], binding was put at a Kd of 0.134 nM, the koff stood at 0.011 s⁻¹ and the kon amounted to 8.23e+07 M⁻¹ s⁻¹.

B9: STLM205 (antibody, V domains shown)
VH: EVQLVQSGAEVKKPGATVKISCKVSAFNIKDDYMHWVQQAPGKGLEWMGRIDPAIGNTEYAEKFQGRVTITADTSTDTAYMELSSLRSEDTAVYYCATGDFYAMDYWGQGTLVTVSS
VL: DIQMTQSPSSLSASVGDRVTITCITNTDIDDVIHWYQQKPGKAPKLLIYEGNTLRPGVPSRFSGSGSGTDFTFTISSLQPEDIATYYCLQSDNMLTFGQGTKLEIK
notes: C2494 HFA mAb: VH STLH194 + VL STLL272 (O18)
As for B9, in experiment [1], binding was characterised by a dissociation constant (Kd) of 0.0401 nM, the koff is 0.000695 s⁻¹ and the kon worked out at 1.73e+07 M⁻¹ s⁻¹. In experiment [2], the affinity, expressed as Kd, was 0.1 nM; the koff amounted to 0.00404 s⁻¹; the kon was 4.04e+07 M⁻¹ s⁻¹.
